The target of assay [1] is human p110γ, biGBac construct co-expressed with human p84 or human p101 (human, UniProt P48736 1-1102). Nature of the assay: HDX-MS.
The target of assay [2] is human p110γ (catalytic subunit of PI3Kγ), co-expressed with mouse p84 or porcine p101 (human, UniProt P48736 1-1102). Nature of the assay: SEC. In general terms: SEC sorts molecules by how far they enter the pores of the column.
In assay [3] the target is porcine p110γ (for X-ray crystallography) (porcine, UniProt O02697 1-1102). In words: crystal structure.
porcine p110γ (for X-ray crystallography), sequence (O02697 whole entry): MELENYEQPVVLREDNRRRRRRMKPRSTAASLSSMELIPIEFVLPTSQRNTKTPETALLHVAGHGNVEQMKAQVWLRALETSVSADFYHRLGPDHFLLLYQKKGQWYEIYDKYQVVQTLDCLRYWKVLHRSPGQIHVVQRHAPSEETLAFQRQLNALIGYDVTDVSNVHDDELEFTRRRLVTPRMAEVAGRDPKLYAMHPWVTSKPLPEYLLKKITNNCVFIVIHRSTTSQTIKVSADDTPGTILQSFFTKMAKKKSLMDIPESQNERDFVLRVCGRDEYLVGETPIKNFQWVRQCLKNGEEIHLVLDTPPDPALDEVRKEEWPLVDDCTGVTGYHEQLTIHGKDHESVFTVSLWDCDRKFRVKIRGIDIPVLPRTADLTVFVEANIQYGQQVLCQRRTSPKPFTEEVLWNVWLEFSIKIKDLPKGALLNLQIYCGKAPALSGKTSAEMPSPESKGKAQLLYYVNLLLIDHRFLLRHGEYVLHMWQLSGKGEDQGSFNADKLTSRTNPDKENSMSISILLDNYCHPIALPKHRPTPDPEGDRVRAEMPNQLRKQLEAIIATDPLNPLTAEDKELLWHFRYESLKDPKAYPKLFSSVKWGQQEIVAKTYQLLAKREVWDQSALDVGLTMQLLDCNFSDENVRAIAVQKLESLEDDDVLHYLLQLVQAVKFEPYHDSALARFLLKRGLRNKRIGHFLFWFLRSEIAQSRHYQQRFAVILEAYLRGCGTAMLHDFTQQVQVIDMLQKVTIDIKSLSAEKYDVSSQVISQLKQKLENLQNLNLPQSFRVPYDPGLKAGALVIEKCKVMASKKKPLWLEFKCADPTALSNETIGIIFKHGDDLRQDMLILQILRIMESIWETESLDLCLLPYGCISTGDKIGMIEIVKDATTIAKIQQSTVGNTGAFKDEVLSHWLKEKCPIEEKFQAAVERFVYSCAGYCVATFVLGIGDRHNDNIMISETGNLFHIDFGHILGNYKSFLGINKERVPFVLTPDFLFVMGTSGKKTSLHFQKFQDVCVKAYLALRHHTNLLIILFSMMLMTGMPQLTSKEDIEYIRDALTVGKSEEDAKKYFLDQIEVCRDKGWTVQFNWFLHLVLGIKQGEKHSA

human p110γ, biGBac construct co-expressed with human p84 or human p101, sequence (P48736 whole entry): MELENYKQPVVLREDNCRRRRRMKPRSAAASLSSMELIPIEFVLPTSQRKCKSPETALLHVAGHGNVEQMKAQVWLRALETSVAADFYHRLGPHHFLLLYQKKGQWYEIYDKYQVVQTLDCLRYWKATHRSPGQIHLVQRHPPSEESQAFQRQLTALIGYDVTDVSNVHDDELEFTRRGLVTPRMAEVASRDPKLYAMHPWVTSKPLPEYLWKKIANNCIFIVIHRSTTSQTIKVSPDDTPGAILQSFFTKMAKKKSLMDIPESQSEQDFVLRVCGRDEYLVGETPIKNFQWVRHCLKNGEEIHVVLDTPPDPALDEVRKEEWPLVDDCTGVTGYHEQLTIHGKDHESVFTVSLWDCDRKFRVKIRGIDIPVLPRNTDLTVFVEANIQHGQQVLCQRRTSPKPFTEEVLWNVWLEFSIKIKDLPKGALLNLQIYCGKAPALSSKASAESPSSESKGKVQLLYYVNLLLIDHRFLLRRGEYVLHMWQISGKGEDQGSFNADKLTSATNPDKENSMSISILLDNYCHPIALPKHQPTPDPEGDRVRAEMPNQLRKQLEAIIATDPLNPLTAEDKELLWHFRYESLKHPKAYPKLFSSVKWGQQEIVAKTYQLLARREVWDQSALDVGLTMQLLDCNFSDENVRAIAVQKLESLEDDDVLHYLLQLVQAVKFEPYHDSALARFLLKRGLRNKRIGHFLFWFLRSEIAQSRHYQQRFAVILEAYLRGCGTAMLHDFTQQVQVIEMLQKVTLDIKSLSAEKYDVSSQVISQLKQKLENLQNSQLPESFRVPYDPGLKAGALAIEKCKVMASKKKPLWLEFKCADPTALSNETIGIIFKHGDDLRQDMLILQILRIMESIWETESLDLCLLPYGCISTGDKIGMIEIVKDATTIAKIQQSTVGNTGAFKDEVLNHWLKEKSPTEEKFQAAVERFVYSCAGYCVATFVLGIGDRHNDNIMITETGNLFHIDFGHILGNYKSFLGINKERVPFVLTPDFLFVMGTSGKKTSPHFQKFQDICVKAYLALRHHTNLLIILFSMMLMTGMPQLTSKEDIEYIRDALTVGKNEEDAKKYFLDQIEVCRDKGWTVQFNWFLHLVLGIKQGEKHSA
human p110γ (catalytic subunit of PI3Kγ), co-expressed with mouse p84 or porcine p101, sequence (P48736 whole entry): as above

B1: human p84 (regulatory subunit of PI3Kγ), co-expressed with human p110γ (natural protein)
chain: MESSDVELDLQRSVQAVLRELSTQAPALQSNQGMWRWSLHKKVERDPGKSPVLVRILLRELEKAESQDLRHVIIPLLHTVMYVLTKATGITEELYQRIYAFCTRLLTLPTPYCTVALDCAIRLKTEMAVPGTLYQRMVIAEQNLTNELYPYQERVFLFVDPELVSASVCSALLLEIEAAQAQQTPETCMRHVVSHALQAALGEACHAGALHRKLQASPRRTLEHYFHAVVAALEQMASEASPSREGHVERLEEIYCSLLGPAAGRCGGDLVQERPPSIPLPSPYITFHLWTGEEQLWKELVLFLRPRSQLRLSADLEVLDLQGLRPDRELARVSVLSTDSGIERDLPTGADELPAPGSPEMERAGLQRKGGIKKRAWPLDFLMPGSWDGPPGLHRRTGRPSGDGEMLPGVSRLHTARVLVLGDDRMLGRLAQAYHRLRKRETQKFCLTPRLSLQLYYIPVLAPEKPAASRQPELGELATFLGRVDPWYQSNVNTLCPAIHKLAEMPPSLDTSRTVDPFILDVITYYIRMGTQPIYFQIYTVKIFFSDLSQDPTEDIFLIELKVKIQDSKFPKDGFSPRRRGVAEGPGAELSLCYQKALLSHRPREVTVSLRATGLILKAIPASDTEVSGSSHCPLPAAPVTDHTCLNVNVTEVVKSSNLAGKSFSTVTNTFRTNNIQIQSRDQRLLTLSLDKDDQRTFRDVVRFEVAPCPEPCSGAQKSKAPWLNLHGQQEVEAIKAKPKPLLMPINTFSGIVQ
As to B1, the binding result in assay [1] is listed as “binds”.

B2: mouse p84 (regulatory subunit of PI3Kγ), co-expressed with human p110γ (natural protein)
chain: MESSDVELDFQRSVQAVLRELNTPNPALQSNQGMWRWSLHKKVERNPGKSSILVRILLRELEKAESEDGRRVIIPLLLTLMSVLTKATGIPEDLYHRAYTFCTRLLTLPAPYSTVALDCAIRLKTETAVPGTLYQRTVIAEQNLISELYPYQERVFLFVDPELVSASVCSALLLEIQAAQEQQTPEACMRHVVSHALQAALGEACHTGALNRKLQASSRRVLEYYFHAVVAAIEQVASEDSPSRLGHLEKMEEIYCSLLGPATTRRHCVGDLLQDRLPSIPLPSPYITFHLWTDQEQLWKELVLFLRPRSQLRLSADLDALDLQGFRLDRDLARVSTDSGIERDLPLGSDELPDPSSSEMERAALQRKGGIKKRVWPPDFFMPGSWDGPPGLHRRTGRPSGDGELLPGVSRVHTARVLVLGDDRMLGRLAQAYYRLRKRETKKFCLTPRLSLQLYYIPVLAPQVTGQDPEASRKPELGELASFLGRVDPWYESTVNTLCPAILKLAEMPPYLDTSRTVDPFILDVITYYVRMGTQPIYFQLYKVKIFTSLSHDPTEDIFLTELKVKIQDSKSPKEGSSPRRRGAAEGTGAELSMCYQKALLSHRPREVTVSLRATGLVLKAIPAGDTEVSGFFHCTSPNAASATDCSCLHVSVTEVVKSSNLAGRSFTTSTNTFRTSSIQVQSQDQRLLTLWLDKDGRRTFRDVVRFEVSPCPEPCSRTQKSKTSALNSHGQETEKNMAKPNSLLMPINTFSGIIQ
For the molecule B2, the binding result in assay [2] was “binds”.

B3: EE-tagged mouse p84 (for X-ray crystallography) (natural protein)
chain: B2 chain
With B3, in assay [3], the binding result is recorded as “binds”.

B4: porcine p101 (regulatory subunit of PI3Kγ), co-expressed with human p110γ (natural protein)
chain: MQPGATTCTEDRIQHALERCLHGLSLSRRSTSWSAGLCLNCWSLQELVSRDPGHFLILLEQILQKTREVQEKGTYDLLAPLALLFYSTVLCTPHFPPDSDLLLKAARTYHRFLTWPVPYCSICQELLTFIDAELKAPGISYQRLVRAEQGLSTRSHRSSTVTVLLLNPVEVQAEFLDVADKLSTPGPSPHSAYITLLLHAFQATFGAHCDLSGLHRRLQSKTLAELEAIFTETAEAQELASGIGDAAEARQWLRTKLQAVGEKAGFPGVLDTAKPGKLRTIPIPVARCYTYSWNQDSFDILQEILLKEQELLQPEILDDEEDEDEEDEEEDLDADGHCAERDSVLSTGSAASHASTLSLASSQASGPTLSRQLLTSFVSGLSDGVDSGYMEDIEESAYERPRRPGGHERRGHRRPGQKFNRIYKLFKSTSQMVLRRDSRSLEGSPDSGPPLRRAGSLCSPLDSPTLPPSRAQGSRSLPQPKLSPQLPGWLLAPASRHQRRRPFLSGDEDPKASTLRVVVFGSDRISGKVVRAYSNLRRLENNRPLLTRFFKLQFFYVPVKRSRGTGTPTSPAPRSQTPPLPTDAPRHPGPAELGAAPWEESTNDISHYLGMLDPWYERNVLGLMHLPPEVLCQSLKAEPRPLEGSPAQLPILADMLLYYCRFAARPVLLQVYQTELTFITGEKTTEIFIHSLELGHSAATRAIKASGPGSKRLGIDGDREAVPLTLQIIYSKGAISGRSRWSNMEKLCTSVNLSKACRQQEELDSSTEALTLNLTEVVKRQTPKSKKGFNQISTSQIKVDKVQIIGSNSCPFAVCLDQDERKILQSVIRCEVSPCYKPEKSSLCPPPQRPSYPPAPATPDLCSLLCLPIMTFSGALP
On to B4, for which the binding result in assay [2] is “binds”.

B5: human p101 (regulatory subunit of PI3Kγ), co-expressed with human p110γ (natural protein)
chain: MQPGATTCTEDRIQHALERCLHGLSLSRRSTSWSAGLCLNCWSLQELVSRDPGHFLILLEQILQKTREVQEKGTYDLLTPLALLFYSTVLCTPHFPPDSDLLLKAASTYHRFLTWPVPYCSICQELLTFIDAELKAPGISYQRLVRAEQGLPIRSHRSSTVTVLLLNPVEVQAEFLAVANKLSTPGHSPHSAYTTLLLHAFQATFGAHCDVPGLHCRLQAKTLAELEDIFTETAEAQELASGIGDAAEARRWLRTKLQAVGEKAGFPGVLDTAKPGKLHTIPIPVARCYTYSWSQDSFDILQEILLKEQELLQPGILGDDEEEEEEEEEVEEDLETDGHCAERDSLLSTSSLASHDSTLSLASSQASGPALSRHLLTSFVSGLSDGMDSGYVEDSEESSSEWPWRRGSQERRGHRRPGQKFIRIYKLFKSTSQLVLRRDSRSLEGSSDTALPLRRAGSLCSPLDEPVSPPSRAQRSRSLPQPKLGTQLPSWLLAPASRPQRRRPFLSGDEDPKASTLRVVVFGSDRISGKVARAYSNLRRLENNRPLLTRFFKLQFFYVPVKRSHGTSPGACPPPRSQTPSPPTDSPRHASPGELGTTPWEESTNDISHYLGMLDPWYERNVLGLMHLPPEVLCQQSLKAEAQALEGSPTQLPILADMLLYYCRFAARPVLLQVYQTELTFITGEKTTEIFIHSLELGHSAATRAIKASGPGSKRLGIDGDREAVPLTLQIIYSKGAISGRSRWSNLEKVCTSVNLNKACRKQEELDSSMEALTLNLTEVVKRQNSKSKKGFNQISTSQIKVDKVQIIGSNSCPFAVCLDQDERKILQSVVRCEVSPCYKPEKSDLSSPPQTPPDLPAQAAPDLCSLLCLPIMTFSGALP
Consider B5, for which the binding result in assay [1] is “binds”.

The record behind these values is article PMC10068899 (Cell Reports, 2023).
